Laboratory results from patent US9539289B2, “Immunostimulatory compositions and methods of manufacture” (APIMED MEDICAL HONEY LIMITED, priority 2012, dated 2017).

What was measured:
apisimin = biological target: T1, apisimin (Apis mellifera, UniProt Q8ISL8); experiment: Dot blot assay of apisimin self binding versus insulin and bovine albumin (Example 1, FIG. 1); details: darker colour means greater binding
T1 sequence (Q8ISL8 25-78): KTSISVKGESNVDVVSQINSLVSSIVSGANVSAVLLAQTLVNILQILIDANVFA
Experimental: FIG. 1 illustrates the results of a dot blot assay to test the self binding properties of apisimin against two other proteins not know to be self binding being insulin and bovine albumin. 1=apisimin, 2=insulin, 3=bovine albumin. The darker the colour the greater the degree of binding;
An experiment was conducted to confirm the self-binding nature of apisimin versus other peptides being insulin and bovine albumin.

monocyte cell line = experiment: TNF-α response of a monocyte cell culture after 4 hours of treatment (Examples 3, 5-8); type: cell-based; details: 100 ng/ml dose
Experimental: The immunostimulatory effect was then tested using a variety of samples. Prior to the trial a monocyte cell culture was produced in order to eliminate any natural variation errors. The monocyte culture was then stimulated using a variety of agents and TNF-α concentration measured after 4 hours of treatment with the various reagents.
LPS was used as a positive control being a known and strongly significant stimulant. Cells alone were used as a negative control.
The immunostimulatory effect was tested further using a variety of samples including royal jelly. Prior to the trial a monocyte cell culture was produced in order to eliminate any natural variation errors. The monocyte culture was then stimulated using a variety of agents and TNF-α concentration measured after 4 hours of treatment with the various reagents.
The immunostimulatory effect was tested further using a variety of honey derived AGP compounds and apisimin. […] The monocyte culture was then stimulated using a variety of agents and TNF-α concentration measured after 4 hours of treatment with the various reagents.
The immunostimulatory effect was tested further using a honey derived AGP compound, apisimin and Polymyxin B acting as an LPS inhibitor. […] The monocyte culture was then stimulated using a variety of agents and TNF-α concentration measured after 4 hours of treatment with the various reagents. […]

Row | Substance | self binding (dot blot colour) (apisimin) | TNF-α response (monocyte cell line)
1 | insulin: comparison protein not known to be self binding | weak or not self binding | 
2 | lipopolysaccharide [LPS] |  | approximately 1700 μg/ml
3 | albumin: bovine albumin, comparison protein not known to be self binding | weak or not self binding | 
